Results from PMC5876120 (2019).

B1: contactin-2 ECD (protein)
chain: SQTTFGPVFEDQPLSVLFPEESTEEQVLLACRARASPPATYRWKMNGTEMKLEPGSRHQLVGGNLVIMNPTKAQDAGVYQCLASNPVGTVVSREAILRFGFLQEFSKEERDPVKAHEGWGVMLPCNPPAHYPGLSYRWLLNEFPNFIPTDGRHFVSQTTGNLYIARTNASDLGNYSCLATSHMDFSTKSVFSKFAQLNLAAEDTRLFAPSIKARFPAETYALVGQQVTLECFAFGNPVPRIKWRKVDGSLSPQWTTAEPTLQIPSVSFEDEGTYECEAENSKGRDTVQGRIIVQAQPEWLKVISDTEADIGSNLRWGCAAAGKPRPTVRWLRNGEPLASQNRVEVLAGDLRFSKLSLEDSGMYQCVAENKHGTIYASAELAVQALAPDFRLNPVRRLIPAARGGEILIPCQPRAAPKAVVLWSKGTEILVNSSRVTVTPDGTLIIRNISRSDEGKYTCFAENFMGKANSTGILSVRDATKITLAPSSADINLGDNLTLQCHASHDPTMDLTFTWTLDDFPIDFDKPGGHYRRTNVKETIGDLTILNAQLRHGGKYTCMAQTVVDSASKEATVLVRGPPGPPGGVVVRDIGDTTIQLSWSRGFDNHSPIAKYTLQARTPPAGKWKQVRTNPANIEGNAETAQVLGLTPWMDYEFRVIASNILGTGEPSGPSSKIRTREAAPSVAPSGLSGGGGAPGELIVNWTPMSREYQNGDGFGYLLSFRRQGSTHWQTARVPGADAQYFVYSNESVRPYTPFEVKIRSYNRRGDGPESLTALVYSAEEEPRVAPTKVWAKGVSSSEMNVTWEPVQQDMNGILLGYEIRYWKAGDKEAAADRVRTAGLDTSARVSGLHPNTKYHVTVRAYNRAGTGPASPSANATTMKPPPRRPPGNISWTFSSSSLSIKWDPVVPFRNESAVTGYKMLYQNDLHLTPTLHLTGKNWIEIPVPEDIGHALVQIRTTGPGGDGIPAEVHIVRNGGTSMMVEN
B2: Caspr2 ECD (protein)
chain: APSTSQKCDEPLVSGLPHVAFSSSSSISGSYSPGYAKINKRGGAGGWSPSDSDHYQWLQVDFGNRKQISAIATQGRYSSSDWVTQYRMLYSDTGRNWKPYHQDGNIWAFPGNINSDGVVRHELQHPIIARYVRIVPLDWNGEGRIGLRIEVYGCSYWADVINFDGHVVLPYRFRNKKMKTLKDVIALNFKTSESEGVILHGEGQQGDYITLELKKAKLVLSLNLGSNQLGPIYGHTSVMTGSLLDDHHWHSVVIERQGRSINLTLDRSMQHFRTNGEFDYLDLDYEITFGGIPFSGKPSSSSRKNFKGCMESINYNGVNITDLARRKKLEPSNVGNLSFSCVEPYTVPVFFNATSYLEVPGRLNQDLFSVSFQFRTWNPNGLLVFSHFADNLGNVEIDLTESKVGVHINITQTKMSQIDISSGSGLNDGQWHEVRFLAKENFAILTIDGDEASAVRTNSPLQVKTGEKYFFGGFLNQMNNSSHSVLQPSFQGCMQLIQVDDQLVNLYEVAQRKPGSFANVSIDMCAIIDRCVPNHCEHGGKCSQTWDSFKCTCDETGYSGATCHNSIYEPSCEAYKHLGQTSNYYWIDPDGSGPLGPLKVYCNMTEDKVWTIVSHDLQMQTPVVGYNPEKYSVTQLVYSASMDQISAITDSAEYCEQYVSYFCKMSRLLNTPDGSPYTWWVGKANEKHYYWGGSGPGIQKCACGIERNCTDPKYYCNCDADYKQWRKDAGFLSYKDHLPVSQVVVGDTDRQGSEAKLSVGPLRCQGDRNYWNAASFPNPSSYLHFSTFQGETSADISFYFKTLTPWGVFLENMGKEDFIKLELKSATEVSFSFDVGNGPVEIVVRSPTPLNDDQWHRVTAERNVKQASLQVDRLPQQIRKAPTEGHTRLELYSQLFVGGAGGQQGFLGCIRSLRMNGVTLDLEERAKVTSGFISGCSGHCTSYGTNCENGGKCLERYHGYSCDCSNTAYDGTFCNKDVGAFFEEGMWLRYNFQAPATNARDSSSRVDNAPDQQNSHPDLAQEEIRFSFSTTKAPCILLYISSFTTDFLAVLVKPTGSLQIRYNLGGTREPYNIDVDHRNMANGQPHSVNITRHEKTIFLKLDHYPSVSYHLPSSSDTLFNSPKSLFLGKVIETGKIDQEIHKYNTPGFTGCLSRVQFNQIAPLKAALRQTNASAHVHIQGELVESNCGASPLTLSPMSSATDPWHLDHLDSASADFPYNPGQGQAIRNGVNRNSA

Columns and labels:
Caspr2 ECD = target: B2; experiment: solid phase binding assay
contactin-2 ECD = target: B1; experiment: solid phase binding assay

Row | Kd (Caspr2 ECD) [nM] | Kd (contactin-2 ECD) [nM] | Binder
1 | 15 |  | B1
2 |  | 12 | B2
